# Results published in article PMC4246082, “A Coiled-coil Clamp Controls Both Conformation and Clustering of Stromal Interaction Molecule 1 (STIM1)*” (The Journal of Biological Chemistry, 2014).
# B1: STIM1 CC3ext (residues 388-491) (domain or fragment, human, UniProt Q13586-1 388-491, looked up)
# chain: NTLFGTFHVAHSSSLDDVDHKILTAKQALSEVTAALRERLHRWQQIEILCGFQIVNNPGIHSLVAALNIDPSWMGSTRPNPAHFIMTDDVDDMDEEIVSPLSMQ
# notes: STIM1, human, residues 388-491 (CC3ext); Subcloned into pET-28a via NheI and XhoI; monomer 12.2 kDa on SDS-PAGE; also called recombinant CC3 fragment
# Target: the molecule itself
# Experiment: SEC; Superdex S200 10/300 GL, 4 °C; 100-μl injections of 1.25 mg/ml and 0.25 mg/ml CC3ext; in-line MALS gave no molecular weight because of elution in the void volume
protein,measurement,value
B1,binding result,binds
